Experiment: Standard protocol for determination of kcat and KM (continuous spectrophotometric assay, Acetyl CoA hydrolysis at 235 nm)
Type: biochemical
Conditions: purified protein, about 23° C., 0.2 mM acetyl CoA; for Kcat: 20 mM HEPES pH 6.8, 10% ethylene glycol; for Km: pH 6.8, glyphosate 0.125 to 10 mM
Protocol: KM was calculated from the initial reaction rates obtained from concentrations of glyphosate ranging from 0.125 to 10 mM, using the Lineweaver-Burke transformation of the Michaelis-Menten equation. kcat/KM was determined by dividing the value determined for kcat by the value determined for KM.
Using this methodology, kinetic parameters for a number of GAT polypeptides exemplified herein were determined. For example, the kcat, KM and kcat/KM for the GAT polypeptide corresponding to SEQ ID NO:445 have been determined to be 322 min^−1, 0.5 mM and 660 mM^−1 min^−1, respectively, using the assay conditions described above. The kcat, KM and kcat/KM for the GAT polypeptide corresponding to SEQ ID NO:457 have been determined to be 118 min^−1, 0.1 mM and 1184 mM^−1 min^−1, respectively, using the assay conditions described above. The kcat, KM and kcat/KM for the GAT polypeptide corresponding to SEQ ID NO:300 have been determined to be 296 min^−1, 0.65 mM and 456 mM^−1 min^−1, respectively, using the assay conditions described above. One of skill in the art can use these numbers to confirm that a GAT activity assay is generating kinetic parameters for a GAT suitable for comparison with the values given herein. For example, the conditions used to compare the activity of GATs should yield the same kinetic constants for SEQ ID NO: 300, 445 and 457 (within normal experimental variance) as those reported herein, when the conditions are used to compare a test GAT with the GAT polypeptides exemplified herein. Kinetic parameters for a number of GAT polypeptide variants were determined according to this methodology and are provided in Table 3.

Molecule | Kcat [s⁻¹] | Km [µM]
SEQ ID NO: 385: GAT polypeptide (protein, 6_17C5, GAT polypeptide) MIEVKPINAEDTYEIRHRILRPNQPLEACKYEADLLGGTFHLGGYYRGKLISIASFHQAEHPELEGQKQYQLRGMATLEGNREQKAGSTLIRHAEELLRKKGADLLWCNARTSASGYYKKLGFSEQGEVYDVPPIGPHILMYKKLT | 0.587 | 1300
SEQ ID NO: 398: GAT polypeptide (protein, 6_22H9, GAT polypeptide) MIEVKPINAEDTYEIRHRILRPNQPLEACMYETDLLGGTFHLGGYYRGKLISIASFHQAEHSELEGQKQYQLRGMATLDEYREQKAGSTLIRHAEELLRKKGADLLWCNARTSASGYYKKLGFSEQGEVYDIPPIGPHILMYKKLT | 0.29 | 1100
SEQ ID NO: 392: GAT polypeptide (protein, 6_20A7, GAT polypeptide) MIEVKPINAEDTYEIRHRILRPNQPLEACMYETDLLRGTFHLGGYYRGKLISIASFHQAEHSDLEGQKQYQLRGMATLEEYREQKAGSTLIRHAEELLRKKGADLLWCNARTSASGYYKKLGFSEQGEVYDIPPVGPHILMYKKLT | 0.673 | 1000
SEQ ID NO: 393: GAT polypeptide (protein, 6_20A9, GAT polypeptide) MIEVKPINAGDTYEIRHRILRPNQPLEACKYETDLLGGTFHLGGYYRGKLISIASFHQAEHSELEGQKQYQLRGMATLEGYREQKAGSTLIRHAEELLRKKGADLLWCNARTSASGYYKKLGFSEQGGVYDIPPVGPHILMYKKLT | 0.752 | 1300
SEQ ID NO: 401: GAT polypeptide (protein, 6_2H1, GAT polypeptide) MIEVKPINAEDTYEIRHRVLRPNQPLEACMYETDLLGGTFHLGGYYRGKLISIASFHQAEHPELEGQKPYQLRGMATLEGYREQKAGSTLIRHAEELLRKKGADLLWCNARTSASGYYKKLGFSEQGEIYDIPPIGPHILMYKKLT | 0.443 | 900
SEQ ID NO: 396: GAT polypeptide (protein, 6_22C9, GAT polypeptide) MIEVKPINAEDTYEIRHRILRPNRPLEACMYETDLLGGTFHLGGYYRGKLISIASFHQAEHPGLEGKKQYQLRGMATLEEYREQKAGSTLIRHAEELLRKKGADLLWCNARTSASGYYKKLGFSEQGGVYDIPPVGPHILMYKKLT | 0.79 | 3200
SEQ ID NO: 387: GAT polypeptide (protein, X: residue not identified in the source; ends and bridges not checked, GAT polypeptide) MIEVKPINAEDTYEIRXRILRPNQPLEACMYETDLLGGTFHLGGYYRGKLISIASFHQAEHPELEGQKQYQLRGMATLEGYREQKAGSTLIRHAEELLRKKGADLLWCNARTSASGYYKKLGFSEQGGVYDIPPVGPHILMYKKLT | 0.717 | 1200
SEQ ID NO: 397: GAT polypeptide (protein, 6_22D9, GAT polypeptide) MIEVKPINAEDTYEIRHRILRPNQPLEACMYETDLLEGTFHLGGYYRGKLISIASFHQAEHSELEGQKQYQLRGMATLEGYREQKAGSTLIRHAEELLRKKGADLLWCNARTSASGYYKKLGFSEQGEVYDIPPVGPHILMYKKLT | 0.732 | 1300
SEQ ID NO: 403: GAT polypeptide (protein, 6_3G3, GAT polypeptide) MIEVKPINAEDTYEIRHRILRPNQPLEACMYETDLLGGTFHLGGYYRGKLISIASFHQAEHSELEGQKQYQLRGMATLEGYREQKAGSTLIRHAEELLRKKGADLLWCNARTSASGYYKKLGFSEQGEVYDIPPVGPHILMYKKLT | 0.865 | 1000
SEQ ID NO: 391: GAT polypeptide (protein, 6_19C8, GAT polypeptide) MIEVKPINAEDTYEIRHRILRPNQPLEACKYETDLLGGTLHLGGYYRGKLISIASFHQAEHPELEGQKQYQLRGMATLEGYREQKAGSTLIRQAEELLRKKGADLLWCNARTSASGYYKKLGFSEQGGVYDIPPVGPHILMYKELT | 1.25 | 2000
SEQ ID NO: 386: GAT polypeptide (protein, 6_18C7, GAT polypeptide) MIEVKPINAEDTYEIRHRILRPNQPLEACRYETDLLGGTFHLGGYYRGKLISIASFHQAEHPELEGQKQYQLRGMATLEGYREQKAGSTLIRHAEELLRKKGADLLWCNARISASGYYKKLGFSEQGEVYDIPPVGPHILMYKKLT | 0.537 | 1200
SEQ ID NO: 395: GAT polypeptide (protein, 6_21F4, GAT polypeptide) MIEVKPINAEDTYEIRHRVLRPNQPLEACMYETDLLGGAFHLGGYYRGKLISIASFHQAEHPELEGQKQYQLRGMATLEGYREQKAGSTLIRHAEELLRKKGADLLWCNARTSASGYYKKLGFSEQGEVYDVPPVGPHILMYKKLT | 0.405 | 700
SEQ ID NO: 394: GAT polypeptide (protein, 6_20H5, GAT polypeptide) MIEVKPINAEDTYEIRHRILRPNQPLEACKYETDLLGGTFHLGGYYRGKLISIASFHQAEHSELEGQKQYQLRGMATLEGYREQKAGSTLIRHAEELLRKKGADLLWCNARTSASGYYKKLGFSEQGEVYDIPPIGPHILMYKKLT | 0.325 | 800
SEQ ID NO: 269: GAT polypeptide (protein, 10_12D7, GAT polypeptide) MIEVKPINAEDTYEIRHRILRPNQPLEACKYETDLLGGTLHLGGYYRGKLISIASFHQAEHPELEGQKQYQLRGMATLEEYREQKAGSTLIRHAEELLRKKGADLLWCNARTSASGYYKKLGFSEQGEVYDIPPTGPHILMYKKLT | 1.29 | 1800
SEQ ID NO: 270: GAT polypeptide (protein, 10_15F4, GAT polypeptide) MIEVKPINAEDTYEIRHRILRPNQPLEACMYETDLLRGTFHLGGYYRGKLVSIASFHQAEHPELEGQKQYQLRGMATLEEYREQKAGSTLIRHAEELLRKKGADLLWCNARTSASGYYKKLGFSEQGGVYDIPPVGPHILMYKKLT | 0.627 | 1000
SEQ ID NO: 390: GAT polypeptide (protein, 6_19C3, GAT polypeptide) MIEVKPINAEDTYEIRHRILRPNQPLEACKYETDLLGGTFHLGGYYRGKLISIASFHQAEHPELEGQKQYQLRGMATLEGYREQKAGSTLIRHAEELLRKKGADLLWCNARTSASGYYKKLGFSEQGEVYDIPPIGPHILMYKKLT | 0.385 | 1400
SEQ ID NO: 400: GAT polypeptide (protein, 6_23H7, GAT polypeptide) MIEVKPINAEDTYEIRHRILRPNQPLEACMYETDLLGGTFHLGGYYRGKLISIASFHQAEHSELEGQKQYQLRGMATLEGYREQKAGSTLIRHAEEILRKKGADLLWCNARTSASGYYKKLGFSEQGGVYDIPPVGPHILMYKKLT | 0.77 | 1200
SEQ ID NO: 389: GAT polypeptide (protein, 6_19B6, GAT polypeptide) MIEVKPINAEDTYEIRHRILRPNQPLEACMYETDLLRGAFHLGGYYRGKLISIASFHQAEHSELEGQKQYQLRGMATLEGYREQKAGSTLIRHAEELLRKKGADLLWCNARTSASGYYKKLGFSEQGEVYDIPPVGPHILMYKKLT | 0.398 | 700
SEQ ID NO: 388: GAT polypeptide (protein, 6_19A10, GAT polypeptide) MIEAKPINAEDTYEIRHRILRPNQPLEACMYETDLLGGTFHLGGYYRGKLISIASFHQAEHPELEGQKQYQLRGMATLEGYREQKAGSTLIRHAEELLRKKGADLLWCNARTSASGYYKKLGFSEQGEVYDIPPTGPHILMYKKLT | 1.45 | 1900
SEQ ID NO: 399: GAT polypeptide (protein, 6_23H3, GAT polypeptide) MIEVKPINAEDTYEIRHRILRPNQPLEACMYGTDLLGGTFHLGGYYRGKLISIASFHQAEQPELEGQKQYQLRGMATLEGYREQKAGSTLIRHAEELLRKKGADLLWCNARTSASGYYKKLGFSEQGGVYDIPPVGPHILMYKKLT | 0.732 | 1100
SEQ ID NO: 402: GAT polypeptide (protein, 6_3D6, GAT polypeptide) MIEIKPINAEDTYEIRHRILRPNQPLEACMYETDLLGGTFHLGGYYRGKLISIASFHQAEHPELEGQKQYQLRGMATLEGYREQKAGSTLIRHAEELLRKKGADLLWCNARTSASGYYKKLGFSEQGEVYDIPPVGPHILMYKKLT | 0.695 | 1000

From patent US8008547B2, “Glyphosate-N-acetyltransferase (GAT) genes” (E.I. duPont de Nemours, priority 2000, dated 2011)
